Assay [1] deals with human Claudin-6 (CLDN6) (human) (UniProt P56747). The experiment in a line: KinExA, HEK293T CLDN6-mGFP A11 cells detached by Versene, equilibrium curves 500pM, 10nM; printed 95% CI 3.41nM - 14.99nM.
Assay [2] shares this target. As to the kind of experiment: flow cytometry, UMUC4 cells (positive cell line); 2nd Ab only 1,114.73. Background: Flow cytometry measures light scatter and fluorescence of single cells or particles in a stream.
The target is the same in assay [3]. The experiment in a line: KinExA, HEK293T CLDN6-mGFP A11 cells detached by Versene, equilibrium curves 500pM, 10nM; printed 95% CI 1.46nM - 6.47nM. In general terms: In KinExA the mixture passes briefly over coated beads that capture the unbound partner.
The target is the same in assay [4]. As to the kind of experiment: flow cytometry, HEK293T CLDN6-mGFP A11 cells (positive artificial OE cell line); 2nd Ab only 1,242.89.
Assay [5] has the same target. The experiment in a line: KinExA, HEK293T CLDN6-mGFP A11 cells detached by Versene, equilibrium curves 500pM, 10nM; printed 95% CI 1.49nM - 17.05nM.
The target is the same in assay [6]. The experiment in a line: KinExA, HEK293T CLDN6-mGFP A11 cells detached by Versene, equilibrium curves 500pM, 10nM; printed 95% CI 1.07nM - 7.74nM.
The target is the same in assay [7]. As to the kind of experiment: KinExA, HEK293T CLDN6-mGFP A11 cells detached by Versene, equilibrium curves 500pM, 10nM; printed 95% CI 1.05nM - 3.38nM.
Assay [8] shares this target. As to the kind of experiment: KinExA, HEK293T CLDN6-mGFP A11 cells detached by Versene, equilibrium curves 500pM, 10nM; printed 95% CI 2.10nM - 5.42nM.
Assay [9] shares this target. As to the kind of experiment: KinExA, HEK293T CLDN6-mGFP A11 cells detached by Versene, equilibrium curves 500pM, 10nM; printed 95% CI 0.56nM - 1.66nM.
For another assay, the target named is T1, mouse Claudin-6 (CLDN6) (mouse, UniProt Q9Z262 1-219).
T1 construct: whole, on cells; GFP fusion on engineered HEK293T cells; also called Mouse CLDN6; murine CLDN6
T1 sequence (looked up): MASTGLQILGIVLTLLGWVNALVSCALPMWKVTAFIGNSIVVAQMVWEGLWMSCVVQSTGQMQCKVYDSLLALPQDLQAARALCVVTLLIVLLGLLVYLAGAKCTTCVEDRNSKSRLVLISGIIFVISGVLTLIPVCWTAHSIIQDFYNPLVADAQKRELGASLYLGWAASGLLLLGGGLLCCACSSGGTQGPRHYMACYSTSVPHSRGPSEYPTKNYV
As to the kind of experiment: FACS titration of labelled mAb on HEK293T mouse CLDN6-mGFP cells. Here is the method: (§1) CLDN6 antibodies were tested from 0.32 nM to 1000 nM (serial dilution 1:5, 6 points) in a 50 μl volume with 150,000 cells system.
(§2) CLDN6-expressing cells were used in FACS assays to determine the CLDN6 antibody's ability to bind to CLDN6 on the surface of cells and to cross-react with other CLDN family members. HEK293 T cells engineered to express human CLDN6 fused to GFP, mouse CLDN6 fused to GFP, CLDN9-GFP, CLDN4-GFP, or CLDN3-GFP, or GFP alone (without CLDN6) were used as artificial models of CLDN6 expression.
(§3) For each type of cell tested and for each mAb, cells were detached from the surface of the culture flasks by EDTA (instead of trypsin) in order to protect the cell surface proteins. The detached cells were then incubated with Alexa Fluor®-labeled CLDN6 mAbs for 30 min in the dark on ice at a pre-determined concentration. […] After washing, the cells were read by a BD Accuri™ Flow Cytometer C6 to detect antibody-antigen protein binding in channel FL4H. Each antibody was tested at varied concentrations to establish a dose-fluorescence curve. […] Cross-reactivity data were obtained using a similar methodology, but with cells having a different expression profile for CLDN6, CLDN3, CLDN4 and CLDN9.

Assay [10] deals with CLDN3/4 (endogenous on LS513 or MCF7 cells). As to the kind of experiment: FACS titration of labelled mAb on MCF7 cells (endogenous CLDN3/4+).
Assay [11] deals with human Claudin-6 (CLDN6) (human) (UniProt P56747). The experiment in a line: FACS titration of labelled mAb on HEK293T-CLDN6-mGFP cells.
Assay [12] addresses CLDN3/4 (endogenous on LS513 or MCF7 cells). The experiment in a line: FACS titration of labelled mAb on LS513 cells (endogenous CLDN3/4+).
For assay [13], the target named is human Claudin-6 (CLDN6) (human) (UniProt P56747). The experiment in a line: FACS titration of labelled mAb on ARK2 cells (endogenous CLDN6+).
Assay [14] shares this target. The experiment in a line: FACS titration of labelled mAb on OVCA429 cells (endogenous CLDN6+).
Another assay has as its target T2, Claudin-9 (CLDN9) (human, UniProt O95484 1-217).
T2 construct: whole, on cells; also called CLDN9-GFP; CLDN9-mGFP
T2 sequence (looked up): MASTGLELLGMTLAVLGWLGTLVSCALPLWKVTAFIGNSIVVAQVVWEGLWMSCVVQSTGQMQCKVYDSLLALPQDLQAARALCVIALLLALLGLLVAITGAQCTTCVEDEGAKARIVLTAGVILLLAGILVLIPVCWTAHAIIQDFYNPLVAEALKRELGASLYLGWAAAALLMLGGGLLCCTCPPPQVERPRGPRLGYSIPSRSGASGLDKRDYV
As to the kind of experiment: FACS titration of labelled mAb on HEK293T CLDN9-mGFP cells. As to the method: as §1, §2, §3

The target in a further assay is T3, Claudin-4 (CLDN4) (human, UniProt O14493 1-209).
T3 construct: whole, on cells; also called CLDN4-GFP; CLDN4-mGFP
T3 sequence (looked up): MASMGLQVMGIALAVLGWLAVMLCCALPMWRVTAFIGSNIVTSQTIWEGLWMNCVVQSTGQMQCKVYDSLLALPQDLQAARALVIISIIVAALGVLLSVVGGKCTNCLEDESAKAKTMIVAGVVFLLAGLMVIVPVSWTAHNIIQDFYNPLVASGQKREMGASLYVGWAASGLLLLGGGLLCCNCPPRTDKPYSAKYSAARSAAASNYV
As to the kind of experiment: FACS titration of labelled mAb on HEK293T CLDN4-mGFP cells. Here is the method:
as §1, §2, §3

Consider ten molecules from patent US20230049752A1 (University of California, published 2023).

Where only a bound is given, the exact number is not on record here.

B1: CLDN6 ADC: AB3-7 conjugated to MC-VC-PAB-MMAE (conventional) (antibody, V domains shown)
VH: EVQLLESGGGLVQPGGSMRLSCAASGFTFSNYWMNWVRQAPGKGLEWVAQIRLKSDNYATHYADSVKGRFTISRDDSKNTVYLQMNSLRAEDTGVYYCNDGPPSGSWGQGTLLTVSS
VL: DIQMTQSPSSLSASVGDRVTITCRISENIYSYLAWYQQKPGKAPKLLVYNAKILVEGVPSRFSGSGSGTDFTLTISSLQPEDFGTYYCQHHYTVPWTFGQGTKLEIK
modifications: antibody conjugated to MC-VC-PAB-MMAE, heterogeneous drug load; attachment residues not stated
The Kd is the concentration at which binding is half-saturated. Read a high Kd as lower affinity. B1 registered a Kd in assay [1] of 6.68 nM. In addition, the flow cytometry signal at 1µg Ab/Sample in assay [2] turned out to be 28800.

B2: CLDN6 ADC: AB3-7 conjugated to MC-GGFG-DXD (antibody, V domains shown)
VH: B1 VH
VL: B1 VL
modifications: antibody conjugated to MC-GGFG-DXD; attachment residues not stated
Turning to B2, the Kd in [3] is 3.01 nM. Besides, the flow cytometry signal at 0.1µg Ab/Sample in assay [4] was determined as 121000. Moreover, in assay [2], the flow cytometry signal at 0.1µg Ab/Sample amounted to 10500 and the flow cytometry signal at 1µg Ab/Sample amounted to 32800.

B3: CLDN6 ADC: AB3-7 conjugated to MC-VC-PAB-MMAE (D4 technology) (antibody, V domains shown)
VH: B1 VH
VL: B1 VL
modifications: antibody conjugated to MC-VC-PAB-MMAE, mostly 4 drugs per antibody; attachment residues not stated
With B3, the Kd in [5] is 5.34 nM. Besides, in assay [2], the flow cytometry signal at 0.1µg Ab/Sample was 9450 and the flow cytometry signal at 1µg Ab/Sample was found to be 26900.

B4: CLDN6 ADC: AB3-7 conjugated to CL2A-SN38 (D4 technology) (antibody, V domains shown)
VH: B1 VH
VL: B1 VL
modifications: antibody conjugated to CL2A-SN38, mostly 4 drugs per antibody; attachment residues not stated
With B4, the Kd in assay [6] came out at 2.87 nM. In [2], the flow cytometry signal at 0.1µg Ab/Sample is 9140 and the flow cytometry signal at 1µg Ab/Sample came to 34600.

B5: CLDN6 ADC: AB3-7 conjugated to CL2A-SN38 (conventional) (antibody, V domains shown)
VH: B1 VH
VL: B1 VL
modifications: antibody conjugated to CL2A-SN38, heterogeneous drug load; attachment residues not stated
The molecule B5 registered a Kd in assay [7] of 1.91 nM. Also, in [2], the flow cytometry signal at 0.1µg Ab/Sample is 9990 and the flow cytometry signal at 1µg Ab/Sample is 33800.

B6: CLDN6 ADC: AB3-7 conjugated to MC-VC-PAB-DXD (antibody, V domains shown)
VH: B1 VH
VL: B1 VL
modifications: antibody conjugated to MC-VC-PAB-DXD; attachment residues not stated
On to B6, for which the Kd in assay [8] was 3.42 nM. Further, the results for the flow cytometry signal at 0.1µg Ab/Sample in assay [4] and in assay [2] were 110000 and 10800, respectively. Also, in assay [2], the flow cytometry signal at 1µg Ab/Sample is 32600.

B7: CLDN6 ADC: AB3-7 conjugated to MC-GGFG-MMAE (D4 technology) (antibody, V domains shown)
VH: B1 VH
VL: B1 VL
modifications: antibody conjugated to MC-GGFG-MMAE, mostly 4 drugs per antibody; attachment residues not stated
For B7, in assay [2], the flow cytometry signal at 0.1µg Ab/Sample came out at 8790 and the flow cytometry signal at 1µg Ab/Sample was determined as 31600. In [9], this molecule yielded a Kd of 1.01 nM.

B8: AB8 (antibody, V domains shown)
VH: QVQLQQSGAELARPGASVKMSCKASGYTFTTYTMHWLKQRPGQGLEWIGYINPRSGYSNYNQKFKDKATLTADKSSNTAYMQLNTLTSEDSKVYYCSRGELGGFAYWGQGTLVTVSA
VL: DVVMTQTPLSLPVSLGDQASISCRSSQSLVHSDGNTYLYWYLQKPGQSPKLLIYKVSNRFSGVPDRFSGSGSGTDFTLKISRVEAEDLGVYFCSQSTHVPYTFGGGTKLEIK
notes: full-length IgG (ExpiCHO)
What is called EC50 is the concentration needed to bring the measured effect to its halfway point. A high value points to weaker potency. B8: the EC50 is at least 5000 nM with mouse Claudin-6 (CLDN6); 1060 nM in assay [10]; 1920 nM in [11]; 1130 nM in [12]; 1140 nM in assay [13]; 1090 nM in assay [14]. Further, the EC50 in the assay with Claudin-9 (CLDN9) is 2770 nM; with Claudin-4 (CLDN4), at least 5000 nM.

B9: AB6 (antibody, V domains shown)
VH: DVQLQESGPGLVKSSQSLSLTCSVTGYSITSGYYWKWIRQFPGNKLEWMGYISYDGGINYNPSLKNRISITRDTSKNQFFLKLNSVTTEDTAKYYCARFGKGAMDYWGQGTSVTVSS
VL: AIVMFQSPSSLVVSAGEKVTMSCKSSQSLLNSRTRKNYLAWYQQKPGQSPKLLIYWASTRESGVPDRFTGSGSGTDFTLTISSVQAEDLAVYYCKQSYYLYTFGGGTKLEIK
notes: full-length IgG (ExpiCHO)
Turning to B9, the EC50 with mouse Claudin-6 (CLDN6) is 2220 nM; in [10], 1140 nM; in assay [11] it was 1430 nM; in assay [12] it was 133 nM; in [13], 765 nM; in [14], 394 nM. In addition, the figures for the EC50 with Claudin-9 (CLDN9) and with Claudin-4 (CLDN4) were 2770 nM and 26 nM, respectively.

B10: AB7 (antibody, V domains shown)
VH: EVQLQQSGPELVKPGASMKISCKASGYSFTGYTMNWVKQSHGKNLEWIGLINPYNGGTNYNQKFKGKATLTVDKSSSTAYMELLSLTSEDSAVYYCARGVYDYDGFTYWGQGTLVTVSA
VL: QIVLTQSPAIMSASLGDRVTMTCTASSSVSSSYLHWYQQKPGSSPKLWIYSTSNLASGVPARFSGSGSGTSYSLTISSMEAEDAATYYCHQYHRSPPTFGSGTKLEIK
notes: full-length IgG (ExpiCHO)
For B10, the EC50 turned out to be 1550 nM with mouse Claudin-6 (CLDN6); 979 nM in assay [10]; 579 nM in assay [11]; 635 nM in [12]; 353 nM in assay [13]; 531 nM in assay [14]. In addition, the EC50 turned out to be 1940 nM in the assay with Claudin-9 (CLDN9) and 2090 nM with Claudin-4 (CLDN4).
